Assay: yeast display, Sf9 membrane polyspecificity reagent, FACS + sequencing; frameworks hold sequencing errors
How it was run: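 Using colony PCR, genes from sorted yeast display clones were amplified, then sequenced on MiSeq at 2 × 250 and filtered by CDR length. The clones had been stained with 10% biotinylated, detergent-solubilized Sf9 membrane reagent for 1 hour at 4 °C and sorted by FACS into low and high (top ~1%) gates on anti-HA and streptavidin fluorescence. Polyreactivity labels come from the gate of origin.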

| Sequence | polyreactivity (PSR sort gate) |
| --- | --- |
| QVQLVESGGGLVQAGGSLRLSCAASGSIFGTYAMGWYRQAPGNERELVAAITGNGGRTYYADSVKGRFTISRDNAKNTVYLQMNSLKPEDTAVYYCAKATSRRGFYYWGQGTQVTVSS | high polyreactivity |
| QVQLVESGGGLVQAGGSLRLSCAASGSIFGVNAMGLYRQAPGKERELVASISLSDDRTYYADSVKGRFTISRDNAKNTVYLQMNSLKPEDTAVYYCARRILWYWDVYPSLAEYDYWGQGTQVTVSS | low polyreactivity |
| QVQLVESGGGLVQAGGSLRLSCAASGSIFGVNAMGWYRQAPGKERELVAAISSGGSTNYADSVKGRFTISRDNAKNTVYLQMNSLKPEDTAVYYCAADTNTRSNYDYWGQGTQVTVSS | low polyreactivity |
| QVQLVESGGGLVQAGGSLRLSCAASGSIFGVNTMGWYRQAPGKERELVAAISSGGNTHYADSVKGRFTISRDNAKNTVYLQMNSLKPEDTAVYYCAAAYVGIYYVSRRRWERYYYWGQGTQVTVSS | high polyreactivity |
| QVQLVESGGGLVQAGGSLRLSCAASGSIFGVYAMGWYRQAPGKEREFVAAITKRGGSTYYADSVKGRFTISRDNAKNTVYLQMNSLKPEDTAVYYCAARYGRYISSRYGSWGQGTQVTVSS | high polyreactivity |
| QVQLVESGGGLVQAGGSLRLSCAASGSIFGVYAMGWYRQAPGKERELVAAINSGGTTYADSVKGRFTISRDNAKNTVYLQMNSLKPEDTAVYYCNADRWGPEDPYRVRDRFDYWGQGTQVTVSS | low polyreactivity |
| QVQLVESGGGLVQAGGSLRLSCAASGSIFGVYAMGWYRQAPGTERELVAAISSRGSSTYYADSVKGRFTISRDNAKKTVYLQMLSLKPEDTAVYYCAARPGIRSYPPGYGYWGQGTQGTVSS | high polyreactivity |
| QVQLVESGGGLVQAGGSLRLSCAASGSIFGVYTMGWYRQAPGKERELVAAISGSGGSTYYADSVKGRFTISRDNAKNTVYLQMNSLKPEDTAVYYCATRFPKIPPYDSWGQGTQVTVSS | low polyreactivity |
| QVQLVESGGGLVQAGGSLRLSCAASGSIFGVYVMGWYRQAPGKERELVAAITRGASTNYADSVKGRFTISRDNAKNTVYLQMNSLKPEDTAVYYCAADGWYSAVGVWLEYDYWGQGTQVTVSS | low polyreactivity |
| QVQLVESGGGLVQAGGSLRLSCAASGSIFGWNAMGWYRQAPGKERELVAAISSGGSTYYADSVKGRFTISRDNAKNTVYLQMNSMKPEDPAVYYCNAYFQYYDYWGQGTQVTVSS | low polyreactivity |
| QVQLVESGGGLVQAGGSLRLSCAASGSIFGWYAMGWYRQAPGKERELVAAIDSATSTDYADSVKGRFTISRDNAKNTVYLQMNSLKPEDTAFYYCAVYSCWIDAEYDYWGQGTQVTGSS | low polyreactivity |
| QVQLVESGGGLVQAGGSLRLSCAASGSIFGWYVMGWYIQAPGKERELVAAISSVGSTYYADSVKGRFTISRDNAKNTVYLQMKSLKPEDTAVYYCAKLRYPYLFWDDSEYWGQGTQVTVSS | low polyreactivity |
| QVQLVESGGGLVQAGGSLRLSCAASGSIFGWYVMGWYRQAPGKERELVAAISSVGSTYYADSVKGRFTISRDNAKNTVYLQMNSLKPEDTAVYYCAKLRYPYLFWDDSEYWGQGTQVTVSS | low polyreactivity |
| QVQLVESGGGLVQAGGSLRLSCAASGSIFGYNAMGWSRQAPGKERELVAGITSGTSTYYADSVKGRFTISRDNAKYTVYLQMNSLKPEDTEVYYCARTSYRFYRKRYYWGQGTQVTVSS | high polyreactivity |
| QVQLVESGGGLVQAGGSLRLSCAASGSIFGYNAMGWYRQAPGIERELVAAISSGGNTYYADSVKGRFTISRDNAKNTVYLQMNSLKPEDTAVYYCAVDYYYGFDWGQGTQVTVSS | low polyreactivity |
| QVQLVESGGGLVQAGGSLRLSCAASGSIFGYNAMGWYRQAPGKDREFVAAIRWSSGSTYYADSVKGRFTISRDNAKNTVYLQMNSLKPEDTAVYYCATRQTYLYWGQGTQVTVSS | high polyreactivity |
| QVQLVESGGGLVQAGGSLRLSCAASGSIFGYNAMVWYRQAPGKESELVAAIRYSGGRTYYADSVKGRFTISRDNAKNSVYLQMNSLKPEDTAVYYCAAPIKFYRYGYTRYDYWGQCTQVTVSS | high polyreactivity |
| QVQLVESGGGLVQAGGSLRLSCAASGSIFGYNDMGWYRQAPGKERELVAAIDWSDDITYYADSVKGRFTISRDNAKNTVYLQMNSLKPEDTAVYYCATKIRLALYFGYVSEYDYWGQGTQVTVSS | high polyreactivity |
| QVQLVESGGGLVQAGGSLRLSCAASGSIFGYNPMGWYIQAPGKERELVAAISRSGGRTYYADSVKGRFTISRDNAKNTVYLQMNSLKPEDTAVYDCAAPVWRYYRGKTFDYWGQGTQVTVSS | high polyreactivity |
| QVQLVESGGGLVQAGGSLRLSCAASGSIFGYNTMGRYRQAPGKERELVAAISYRGGSTYADSVKGRFTISRDNAKNTVYLQMNSLKPEDTAVYYCAKRSIVGYRYSGYDYWGQGTQVTVSS | high polyreactivity |
| QVQLVESGGGLVQAGGSLRLSCAASGSIFGYNTMGWSRQAPGKERELVASISYSGGSTYYADSVKGRFTISRDNAKNTVYLQMNSLKPEDTAVYYCNTGSRYRPNRRYGYWGQGTQVTVSS | high polyreactivity |
| QVQLVESGGGLVQAGGSLRLSCAASGSIFGYNVMGWYRQAPGKERELVAGITSGGSTNYADSVKGRFTISRDNAKNTVYVQMNSLKPEDTAVYYCNAEGVFGDGRSGFYWYDYWGQGTQVTVSS | low polyreactivity |

| Sequence | polyreactivity (PSR sort gate) |
| --- | --- |
| QVQLVESGGGLVQAGGSLRLSCAASGSIFGYYALGWYRQAPGKERELVAAITSVGSTYYADSVKGRFTISRDNAKKTVSLQMNSLKPEDTAVYYCATRFWFRSLRSSYYYWGQGTQVTVSS | high polyreactivity |
| QVQLVESGGGLVQAGGSLRLSCAASGSIFGYYAMGWSRQAPGKERELVAAISKSGGRTYYADSVKGRFTISRDNAKNTVYLQMNSLKPEDTAVYYCAAVLWYDIYYGGDYWGQGTQVTVSS | high polyreactivity |
| QVQLVESGGGLVQAGGSLRLSCAASGSIFGYYAMGWYRQAPGKERELVAAISSGGSTKYADSVKGRFTISRDNAKNTVYLQMNSLKPEDTAVYYFNAAYSQIRFNYRGQGTQVTVSS | high polyreactivity |
| QVQLVESGGGLVQAGGSLRLSCAASGSIFGYYAMGWYRQAPGKERELVAAISTSGGRTYYADSVKGRFTISRDNAKNTVYFQMNSLKPEDTAVYYCAARVYSTSVVAYYYWGQGTQVTVSS | high polyreactivity |
| QVQLVESGGGLVQAGGSLRLSCAASGSIFGYYAMGWYRQAPGKERELVAAISWSGGRTYYADSVKGRFTISRDNAKNTVYLQMNSLKPEDTAVYYCNARWRSGPRAYDYWGQGTQVSVSS | high polyreactivity |
| QVQLVESGGGLVQAGGSLRLSCAASGSIFGYYTMGWYRQAPGKERELVAAITRSGATTFYADSVKGRFTISRDNAKNTVYLQMNSLKPEDTAVYYCAAKARGYTRGYWGQGTQVTVSS | high polyreactivity |
| QVQLVESGGGLVQAGGSLRLSCAASGSIFGYYTMGWYRQAPGKERELVARITRGGSTYYADSVKGRFTISRDNAKNTVYLQMNSLYPEDTSVYYCNAEIWTEGGYWGQGSQVTVSS | low polyreactivity |
| QVQLVESGGGLVQAGGSLRLSCAASGSIFGYYTMGWYRQAPGKERELVATINWSGGNTYYADSVKGRFTISRDNAKNTVYLQMNSLKPEDTAVYYCATRPRRGTSENGYWGQGTQVTVSS | high polyreactivity |
| QVQLVESGGGLVQAGGSLRLSCAASGSIFGYYTMGWYRQAPGKERELVATISRSGGSTYYADSVKGRFTISRDNAKNTVYLQMNSLKPEDTAVYYCAARSWGGYDSRGYWGQGTQVTVSS | high polyreactivity |
| QVQLVESGGGLVQAGGSLRLSCAASGSIFGYYVMGWYRQAPGKERELVAAISGSDSSTYYADSVKGRFTISRDNAKNTVYLQMNSLKPEDTAVYYCNADLRYYPVEFDYWGQGTQVTVSS | low polyreactivity |
| QVQLVESGGGLVQAGGSLRLSCAASGSIFHDYAMGWYRQEHGKERELVAVISTSGGSTYYADSVKGRFTISRDNAKNTDYLQMNSLKPEYTAVYYCNARTVGPYPSQAALEYDSGGQGTQVTVSS | low polyreactivity |
| QVQLVESGGGLVQAGGSLRLSCAASGSIFHGNAMGWNRQAPGKERELVATISSGGSTYYADSVKGRFTISRDNAKNTVYLQMNSLKPEDTAVYYCAAEYWNGPYYGDPFEYDYWGQGTQVTVSS | low polyreactivity |
| QVQLVESGGGLVQAGGSLRLSCAASGSIFHGYAMGWYRHAPGKERELVAAITWSGGRTYYADSVKGRFTISRDNAKNNVYLQMNSLKPEDTAVYYCAAVALTRRYDYWGQGTQVTVSS | high polyreactivity |
| QVQLVESGGGLVQAGGSLRLSCAASGSIFHGYAMGWYRQAHGKETELVAVITRGGNTYYADSVKGRFTISRDNAKNTVYLQMNSLKPEDTAVYYCNKAVDRGRRAYGYWGQGTQVTVSS | high polyreactivity |
| QVQLVESGGGLVQAGGSLRLSCAASGSIFHGYGMGWYRPAPGKERELVASITWIGGDTYYADSVKGRFTISRDNAKNTVYLQMNSLKPEDTAVYYCNAEWVVTYIYDYWGQGTQVTVSS | low polyreactivity |
| QVQLVESGGGLVQAGGSLRLSCAASGSIFHINAMGWYRQAPGKERELVAAISSADRTYYADSVKGRFTISRDNAMNTVYLQMNSLKPEDTAVYYCAAVYYRYPYEYWGQGTQVTVSS | high polyreactivity |
| QVQLVESGGGLVQAGGSLRLSCAASGSIFHPNAMGWYRQAPGKERELVAAISIGGDTYYADSVKGRFTISRDNAKNTVYLQMNSLKPEDTAVYYCAVTYVGHVYEYYYWGQGTQVTVSS | low polyreactivity |
| QVQLVESGGGLVQAGGSLRLSCAASGSIFHQYAMGWYRQAPGKERELVAAISANGGRTYYADSVKGRFTISRDNAKNTVYLQMNSLIPEDTAVYYCAASRPSYGVRYGYWGQGTQVTGSS | high polyreactivity |
| QVQLVESGGGLVQAGGSLRLSCAASGSIFHRNTMGWYRQAPGKERELVAAIRRGGSTYYADSVKGRFTISRDNAKNTVYLQMNSLKPEDTAVYYCAADFPGEYYYWGQGTQVTVSS | high polyreactivity |
| QVQLVESGGGLVQAGGSLRLSCAASGSIFHRYAMGWYRQAPGKERELVAAISWRGSSTYYADSVKGRFTISRDNAKNTVYLQMNSLKPEDTAVYYCNARGGSRRRYDYWGQGTQVTVSS | high polyreactivity |
| QVQLVESGGGLVQAGGSLRLSCAASGSIFHTYAMGWYRQAPGKEWELVAAISTDGSTYYADSVKGRFTISRDNAKNTVYLQRNSLKPEDTAVYYCNVAAKYDSFHRGITWYDYWGQGTQVTVSS | low polyreactivity |

Reference: the nanobody polyreactivity screen of Harvey et al. (2022)
